The values that follow come from patent publication US20180244785A1 (MERRIMACK PHARMACEUTICALS, published 2018).

Assay [1] addresses T1, 6His-Fc-FGFR1c (human, UniProt P11362 141-376).
T1 construct: not shown: 6His tag and Fc as named in '6His-Fc-FGFR'
T1 sequence: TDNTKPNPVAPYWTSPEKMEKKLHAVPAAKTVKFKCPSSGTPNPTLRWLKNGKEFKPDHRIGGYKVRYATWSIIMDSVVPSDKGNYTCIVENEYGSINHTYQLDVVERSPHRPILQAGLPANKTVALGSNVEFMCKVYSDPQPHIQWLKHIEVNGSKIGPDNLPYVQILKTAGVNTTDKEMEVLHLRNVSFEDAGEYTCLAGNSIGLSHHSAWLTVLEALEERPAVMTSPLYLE
Kind of assay: competition ELISA, blocks 6His-Fc-FGFR1c binding to coated FGF2. On the procedure:
(§1) ELISA plates were coated with 50 ug/ml Heparin Sulfate (HSPG) (Sigma Aldrich) and incubated overnight at room temperature. Plates were then washed extensively with PBS containing 0.05% v/v Tween20 (PBST). Plates were then blocked with 2.5% BSA in PBST for one hour and washed extensively as before. 40-60 μL of FGF1 or FGF2 was then added to each well at 40 μg/ml and allowed to bind at room temperature for 2 hours. Plates were then washed extensively with PBST as before. Stock solutions of each 6His-Fc-FGFR (FGFR1-4) were prepared at 500 ng/ml in 2% v/v BSA-PBST and each antibody was prepared as a 2×-dilution series in 2% v/v BSA-PBST. Antibodies dilution series and 6His-Fc-FGFR1-4 were diluted in a 1:1 fashion and immediately added to the relative wells of the plate and allowed to bind for 2 hours at room temperature. Plates were washed extensively as before with PBST and the remaining fraction of bound 6His-Fc-FGFR was detected using a polyclonal-anti-His-6-HRP conjugated antibody (Abcam) for one hour at room temperature. After extensive washing with PBST, 50 μl of Pierce Chemiluminescent substrate (Thermo Fisher Scientific, Rockford, USA) was added and plates were measured on an Envision plate reader (Perkin Elmer). Raw data was background corrected and plotted using Prism software. […]
On the technique in general: ELISA stands for enzyme-linked immunosorbent assay.

Assay [2] has as its target T2, 6His-Fc-FGFR4 (human, UniProt P22455 144-369).
T2 construct: not shown: 6His tag and Fc as named in '6His-Fc-FGFR'
T2 sequence: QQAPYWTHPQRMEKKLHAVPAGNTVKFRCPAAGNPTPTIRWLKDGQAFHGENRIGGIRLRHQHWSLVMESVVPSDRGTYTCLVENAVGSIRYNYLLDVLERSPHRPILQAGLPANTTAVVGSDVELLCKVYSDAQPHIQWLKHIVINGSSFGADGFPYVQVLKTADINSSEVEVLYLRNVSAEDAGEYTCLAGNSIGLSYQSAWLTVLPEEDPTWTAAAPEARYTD
Nature of the assay: competition ELISA, blocks 6His-Fc-FGFR4 binding to coated FGF2. How it is done: as §1

B1: Ab59 (antibody, human IgG2, kappa, V domains shown)
VH: EVQLLESGGGVVQPGRSLRLSCAASGFTFSSYAMHWVRQAPGKGLEWVAVISYDGSNKYYADSVKGRFTISRDNSKNTLSLQMNSLRVEDTAIYYCVRGAGRGYPYGPDGFDIWGQGTMVTVSS
VL: DIVMTQTPLSLSVTPGQPASISCTSSRSLLHSDGKTYVYWYVQKSGQPPQLLIYELSNRFSGVPDRFSGSGSRTDFTLKISRVEAEDVGVYYCMQYIEAPLTFGGGTKVEIKR
notes: format in the assays not spelled out
Broadly, the IC50 is the concentration at which inhibition is half-maximal. The low end stands for greater potency, the high end for weaker potency. In the case of B1, the values for the 50% inhibitory concentration (IC50) in assay [1] and in assay [2] were 2.22 nM and ~6.86 nM, respectively.

B2: Ab83 (antibody, human IgG2, kappa, V domains shown)
VH: EVQLLESGGGVVQPGRSLRLSCAASGFTFSSYAMHWVRQAPGKGLEWVAVISYDGSNKYYADSVKGRFTISRDNSKNTLSLQMNSLRVEDTAIYYCVRGAGRGFPYGPDGFDIWGQGTMVTVSS
VL: DIVMTQTPLSLSVTPGQPASISCKSSRSLLHSDGKTYVYWYVQKSGQPPQLLIYELSNRFSGVPDRFSGSGSRTDFTLKISRVEAEDVGVYYCMQYIEAPLTFGGGTKVEIKR
notes: as for B1
Consider B2, for which the figures for the 50% inhibitory concentration (IC50) in assay [1] and in assay [2] were 9.23 nM and 154 nM, respectively.

B3: Ab56 (antibody, human IgG2, kappa, V domains shown)
VH: EVQLLESGGGVVQPGRSLRLSCAASGFTFSSYAMHWVRQAPGKGLEWVAVISYDGSNKYYADSVKGRFTISRDNSKNTLSLQMNSLRVEDTAIYYCVRGAGMGLTYGPDGFDIWGQGTMVTVSS
VL: DIVMTQTPLSLSVTPGQPASISCTSSRSLLHSDGKTYVYWYVQKSGQPPQLLIYELSNRFSGVPDRFSGSGSRTDFTLKISRVEAEDVGVYYCMQYIEAPLTFGGGTKVEIKR
notes: as for B1
As to B3, the values for the half-maximal inhibitory concentration (IC50) in assay [1] and in assay [2] were 3.03 nM and 13.6 nM, respectively.

B4: Ab68 (antibody, human IgG2, kappa, V domains shown)
VH: EVQLLESGGGVVQPGRSLRLSCAASGFTFSSYAMHWVRQAPGKGLEWVAVISYDGSNKYYADSVKGRFTISRDNSKNTLSLQMNSLRVEDTAIYYCVRGAGLGYPNGPDGFDIWGQGTMVTVSS
VL: DIVMTQTPLSLSVTPGQPASISCTSSRSLLHSDGKTYVYWYVQKSGQPPQLLIYELSNRFSGVPDRFSGSGSRTDFTLKISRVEAEDVGVYYCMQYIEAPLTFGGGTKVEIKR
notes: as for B1
Take B4: the IC50 was 2.96 nM in assay [1] and 5.67 nM in assay [2].

B5: Ab76 (antibody, human IgG2, kappa, V domains shown)
VH: EVQLLESGGGVVQPGRSLRLSCAASGFDFAGYAMHWVRQAPGKGLEWVAVISYDGSNKYYADSVKGRFTISRDNSKNTLSLQMNSLRVEDTAIYYCVRGAGRGLTYGPDGFDIWGQGTMVTVSS
VL: DIVMTQTPLSLSVTPGQPASISCKSSRSLLHSDGKTYVYWYVQKSGQPPQLLIYELSNRFSGVPDRFSGSGSRTDFTLKISRVEAEDVGVYYCMQYIEAPLTFGGGTKVEIKR
notes: as for B1
Regarding B5, the IC50 in assay [1] amounted to 6.3 nM; in assay [2], 37.3 nM.

B6: Ab40 (antibody, human IgG2, kappa, V domains shown)
VH: EVQLLESGGGVVQPGRSLRLSCAASGFTFSSYAMHWVRQAPGKGLEWVAVISYDGSNKYYADSVKGRFTISRDNSKNTLSLQMNSLRVEDTAIYYCVRGAGMGLTYGPDGFDIWGQGTMVTVSS
VL: DIVMTQTPLSLSVTPGQPASISCRSSRSLLHSDGKTYVYWYVQKSGQPPQLLIYELSNRFSGVPDRFSGSGSRTDFTLKISRVEAEDVGVYYCMQYIEAPLTFGGGTKVEIKR
notes: as for B1
For the molecule B6, the IC50 in assay [1] was 4.85 nM; in assay [2], 17.5 nM.

B7: Ab43 (antibody, human IgG2, kappa, V domains shown)
VH: EVQLLESGGGVVQPGRSLRLSCAASGFTFSSYAMHWVRQAPGKGLEWVAVISYDGSNKYYADSVKGRFTISRDNSKNTLSLQMNSLRVEDTAIYYCVRGAGRGYPYGPDGFDIWGQGTMVTVSS
VL: DIVMTQTPLSLSVTPGQPASISCRSSRSLLHSDGKTYVYWYVQKSGQPPQLLIYELSNRFSGVPDRFSGSGSRTDFTLKISRVEAEDVGVYYCMQYIEAPLTFGGGTKVEIKR
notes: as for B1
In the case of B7, the half-inhibitory concentration (IC50) in assay [1] came to 6.62 nM; in assay [2] it was 10 nM.

B8: Ab51 (antibody, human IgG2, kappa, V domains shown)
VH: EVQLLESGGGVVQPGRSLRLSCAASGFTFSSYAMHWVRQAPGKGLEWVAVISYDGSNKYYADSVKGRFTISRDNSKNTLSLQMNSLRVEDTAIYYCVRGAGRGFPYGPDGFDIWGQGTMVTVSS
VL: DIVMTQTPLSLSVTPGQPASISCRSSRSLLHSDGKTYVYWYVQKSGQPPQLLIYELSNRFSGVPDRFSGSGSRTDFTLKISRVEAEDVGVYYCMQYIEAPLTFGGGTKVEIKR
notes: as for B1
Take B8: the IC50 is 3.86 nM in assay [1] and 21.1 nM in assay [2].

B9: Ab57 (antibody, human IgG2, kappa, V domains shown)
VH: EVQLLESGGGVVQPGRSLRLSCAASGFTFSSYAMHWVRQAPGKGLEWVAVISYDGSNKYYADSVKGRFTISRDNSKNTLSLQMNSLRVEDTAIYYCVRGAGLGFPYGPDGFDIWGQGTMVTVSS
VL: DIVMTQTPLSLSVTPGQPASISCTSSRSLLHSDGKTYVYWYVQKSGQPPQLLIYELSNRFSGVPDRFSGSGSRTDFTLKISRVEAEDVGVYYCMQYIEAPLTFGGGTKVEIKR
notes: as for B1
As for B9, the IC50 was determined as 2.8 nM in assay [1] and 8.41 nM in assay [2].

B10: Ab63 (antibody, human IgG2, kappa, V domains shown)
VH: EVQLLESGGGVVQPGRSLRLSCAASGFTFSSYAMHWVRQAPGKGLEWVAVISYDGSNKYYADSVKGRFTISRDNSKNTLSLQMNSLRVEDTAIYYCVRGAGRGYPHGPDGFDIWGQGTMVTVSS
VL: DIVMTQTPLSLSVTPGQPASISCTSSRSLLHSDGKTYVYWYVQKSGQPPQLLIYELSNRFSGVPDRFSGSGSRTDFTLKISRVEAEDVGVYYCMQYIEAPLTFGGGTKVEIKR
notes: as for B1
Consider B10, for which the values for the IC50 in assay [1] and in assay [2] were 12.2 nM and 17.4 nM, respectively.

B11: Ab70 (antibody, human IgG2, kappa, V domains shown)
VH: EVQLLESGGGVVQPGRSLRLSCAASGFTFSSYAMHWVRQAPGKGLEWVAVISYDGSNKYYADSVKGRFTISRDNSKNTLSLQMNSLRVEDTAIYYCVRGAGQGYPYGPDGFDIWGQGTMVTVSS
VL: DIVMTQTPLSLSVTPGQPASISCKSSRSLLHSDGKTYVYWYVQKSGQPPQLLIYELSNRFSGVPDRFSGSGSRTDFTLKISRVEAEDVGVYYCMQYIEAPLTFGGGTKVEIKR
notes: as for B1
With B11, the results for the half-maximal inhibitory concentration (IC50) in assay [1] and in assay [2] were 4.59 nM and 19.8 nM, respectively.

B12: Ab82 (antibody, human IgG2, kappa, V domains shown)
VH: EVQLLESGGGVVQPGRSLRLSCAASGFTFSSYAMHWVRQAPGKGLEWVAVISYDGSNKYYADSVKGRFTISRDNSKNTLSLQMNSLRVEDTAIYYCVRGAGLGFPFGPDGFDIWGQGTMVTVSS
VL: DIVMTQTPLSLSVTPGQPASISCKSSRSLLHSDGKTYVYWYVQKSGQPPQLLIYELSNRFSGVPDRFSGSGSRTDFTLKISRVEAEDVGVYYCMQYIEAPLTFGGGTKVEIKR
notes: as for B1
On to B12, for which the IC50 in assay [1] worked out at 2.7 nM; in assay [2] it was 10.4 nM.

B13: Ab41 (antibody, human IgG2, kappa, V domains shown)
VH: EVQLLESGGGVVQPGRSLRLSCAASGFTFSSYAMHWVRQAPGKGLEWVAVISYDGSNKYYADSVKGRFTISRDNSKNTLSLQMNSLRVEDTAIYYCVRGAGLGFPYGPDGFDIWGQGTMVTVSS
VL: DIVMTQTPLSLSVTPGQPASISCRSSRSLLHSDGKTYVYWYVQKSGQPPQLLIYELSNRFSGVPDRFSGSGSRTDFTLKISRVEAEDVGVYYCMQYIEAPLTFGGGTKVEIKR
notes: as for B1
On to B13, for which the IC50 in assay [1] worked out at 3.53 nM; in assay [2] it was 9.87 nM.

B14: Ab72 (antibody, human IgG2, kappa, V domains shown)
VH: EVQLLESGGGVVQPGRSLRLSCAASGFTFSSYAMHWVRQAPGKGLEWVAVISYDGSNKYYADSVKGRFTISRDNSKNTLSLQMNSLRVEDTAIYYCVRGAGMGLTYGPDGFDIWGQGTMVTVSS
VL: DIVMTQTPLSLSVTPGQPASISCKSSRSLLHSDGKTYVYWYVQKSGQPPQLLIYELSNRFSGVPDRFSGSGSRTDFTLKISRVEAEDVGVYYCMQYIEAPLTFGGGTKVEIKR
notes: as for B1
B14: the 50% inhibitory concentration (IC50) in assay [1] was 1.77 nM; in assay [2] it was 11.6 nM.

B15: Ab49 (antibody, human IgG2, kappa, V domains shown)
VH: EVQLLESGGGVVQPGRSLRLSCAASGFTFSSYAMHWVRQAPGKGLEWVAVISYDGSNKYYADSVKGRFTISRDNSKNTLSLQMNSLRVEDTAIYYCVRGAGRGYPYGPDGFDIWGQGTMVTVSS
VL: DIVMTQTPLSLSVTPGQPASISCRSSRSLLHSDGKTYVYWYVQKSGQPPQLLIYELSNRFSGVPDRFSGSGSRTDFTLKISRVEAEDVGVYYCMQYIEAPLTFGGGTKVEIKR
notes: as for B1
Turning to B15, the IC50 in assay [1] is 4.67 nM; in assay [2], 18.4 nM.

B16: Ab67 (antibody, human IgG2, kappa, V domains shown)
VH: EVQLLESGGGVVQPGRSLRLSCAASGFTFSSYAMHWVRQAPGKGLEWVAVISYDGSNKYYADSVKGRFTISRDNSKNTLSLQMNSLRVEDTAIYYCVRGAGRGFPYGPDGFDIWGQGTMVTVSS
VL: DIVMTQTPLSLSVTPGQPASISCTSSRSLLHSDGKTYVYWYVQKSGQPPQLLIYELSNRFSGVPDRFSGSGSRTDFTLKISRVEAEDVGVYYCMQYIEAPLTFGGGTKVEIKR
notes: as for B1
As for B16, the 50% inhibitory concentration (IC50) in assay [1] stood at 5.36 nM; in assay [2] it was 12.8 nM.
